According to the supplement of paper PMC5998384:

Key:
HeLa Kyoto [1] = assay: solubility in G1/S (NP-40 vs SDS abundance) (log2 ratio); higher = more soluble; conditions: cell cycle stage: G1/S
HeLa Kyoto [2] = assay: solubility change mitosis vs G1/S (difference of NP-40 vs SDS log2 ratios) (log2 ratio difference); higher = more soluble in mitosis
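Wherever solubility change mitosis vs G1/S (difference of NP-40 vs SDS log2 ratios) is given: synchronized HeLa Kyoto cells (double thymidine block for G1/S, nocodazole release for mitosis), protein amounts in NP-40 versus SDS lysates quantified by mass spectrometry, three biological replicates.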
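Wherever solubility in G1/S (NP-40 vs SDS abundance) is given: HeLa Kyoto cells arrested at G1/S by double thymidine block, proteins quantified by TMT10plex mass spectrometry in mild NP-40 versus SDS extracts, three biological replicates.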

Sequence | solubility in G1/S (log2) (HeLa Kyoto [1]) | solubility change mitosis (log2) (HeLa Kyoto [2])
MGLKAAQKTLFPLRSIDDVVRLFAAELGREEPDLVLLSLVLGFVEHFLAVNRVIPTNVPELTFQPSPAPDPPGGLTYFPVADLSIIAALYARFTAQIRGAVDLSLYPREGGVSSRELVKKVSDVIWNSLSRSYFKDRAHIQSLFSFITGTKLDSSGVAFAVVGACQALGLRDVHLALSEDHAWVVFGPNGEQTAEVTWHGKGNEDRRGQTVNAGVAERSWLYLKGSYMRCDRKMEVAFMVCAINPSIDLHTDSLELLQLQQKLLWLLYDLGHLERYPMALGNLADLEELEPTPGRPDPLTLYHKGIASAKTYYRDEHIYPYMYLAGYHCRNRNVREALQAWADTATVIQDYNYCREDEEIYKEFFEVANDVIPNLLKEAASLLEAGEERPGEQSQGTQSQGSALQDPECFAHLLRFYDGICKWEEGSPTPVLHVGWATFLVQSLGRFEGQVRQKVRIVSREAEAAEAEEPWGEEAREGRRRGPRRESKPEEPPPPKKPALDKGLGTGQGAVSGPPRKPPGTVAGTARGPEGGSTAQVPAPTASPPPEGPVLTFQSEKMKGMKELLVATKINSSAIKLQLTAQSQVQMKKQKVSTPSDYTLSFLKRQRKGL [MEN1] | -0.472 | 0.197
MGNIFGNLLKSLIGKKEMRILMVGLDAAGKTTILYKLKLGEIVTTIPTIGFNVETVEYKNISFTVWDVGGQDKIRPLWRHYFQNTQGLIFVVDSNDRERVNEAREELMRMLAEDELRDAVLLVFANKQDLPNAMNAAEITDKLGLHSLRHRNWYIQATCATSGDGLYEGLDWLANQLKNKK [ARF3] | -0.169 | -0.299
MGPLRESKKEHRVQHHDKEISRSRIPRLILRPHMPQQQHKVSPASESPFSEEESREFNPSSSGRSARTVSSNSFCSDDTGCPSSQSVSPVKTPSDAGNSPIGFCPGSDEGFTRKKCTIGMVGEGSIQSSRYKKESKSGLVKPGSEADFSSSSSTGSISAPEVHMSTAGSKRSSSSRNRGPHGRSNGASSHKPGSSPSSPREKDLLSMLCRNQLSPVNIHPSYAPSSPSSSNSGSYKGSDCSPIMRRSGRYMSCGENHGVRPPNPEQYLTPLQQKEVTVRHLKTKLKESERRLHERESEIVELKSQLARMREDWIEEECHRVEAQLALKEARKEIKQLKQVIETMRSSLADKDKGIQKYFVDINIQNKKLESLLQSMEMAHSGSLRDELCLDFPCDSPEKSLTLNPPLDTMADGLSLEEQVTGEGADRELLVGDSIANSTDLFDEIVTATTTESGDLELVHSTPGANVLELLPIVMGQEEGSVVVERAVQTDVVPYSPAISELIQSVLQKLQDPCPSSLASPDESEPDSMESFPESLSALVVDLTPRNPNSAILLSPVETPYANVDAEVHANRLMRELDFAACVEERLDGVIPLARGGVVRQYWSSSFLVDLLAVAAPVVPTVLWAFSTQRGGTDPVYNIGALLRGCCVVALHSLRRTAFRIKT [SYBU] | -0.253 | 0.0944
MGSELIGRLAPRLGLAEPDMLRKAEEYLRLSRVKCVGLSARTTETSSAVMCLDLAASWMKCPLDRAYLIKLSGLNKETYQSCLKSFECLLGLNSNIGIRDLAVQFSCIEAVNMASKILKSYESSLPQTQQVDLDLSRPLFTSAALLSACKILKLKVDKNKMVATSGVKKAIFDRLCKQLEKIGQQVDREPGDVATPPRKRKKIVVEAPAKEMEKVEEMPHKPQKDEDLTQDYEEWKRKILENAASAQKATAE [ORC6] | 0.47 | -0.389
MGSKERFHWQSHNVKQSGVDDMVLLPQITEDAIAANLRKRFMDDYIFTYIGSVLISVNPFKQMPYFTDREIDLYQGAAQYENPPHIYALTDNMYRNMLIDCENQCVIISGESGAGKTVAAKYIMGYISKVSGGGEKVQHVKDIILQSNPLLEAFGNAKTVRNNNSSRFGKYFEIQFSRGGEPDGGKISNFLLEKSRVVMQNENERNFHIYYQLLEGASQEQRQNLGLMTPDYYYYLNQSDTYQVDGTDDRSDFGETLSAMQVIGIPPSIQQLVLQLVAGILHLGNISFCEDGNYARVESVDLLAFPAYLLGIDSGRLQEKLTSRKMDSRWGGRSESINVTLNVEQAAYTRDALAKGLYARLFDFLVEAINRAMQKPQEEYSIGVLDIYGFEIFQKNGFEQFCINFVNEKLQQIFIELTLKAEQEEYVQEGIRWTPIQYFNNKVVCDLIENKLSPPGIMSVLDDVCATMHATGGGADQTLLQKLQAAVGTHEHFNSWSAGFVIHHYAGKVSYDVSGFCERNRDVLFSDLIELMQTSEQAFLRMLFPEKLDGDKKGRPSTAGSKIKKQANDLVATLMRCTPHYIRCIKPNETKRPRDWEENRVKHQVEYLGLKENIRVRRAGFAYRRQFAKFLQRYAILTPETWPRWRGDERQGVQHLLRAVNMEPDQYQMGSTKVFVKNPESLFLLEEVRERKFDGFARTIQKAWRRHVAVRKYEEMREEASNILLNKKERRRNSINRNFVGDYLGLEERPELRQFLGKRERVDFADSVTKYDRRFKPIKRDLILTPKCVYVIGREKVKKGPEKGQVCEVLKKKVDIQALRGVSLSTRQDDFFILQEDAADSFLESVFKTEFVSLLCKRFEEATRRPLPLTFSDTLQFRVKKEGWGGGGTRSVTFSRGFGDLAVLKVGGRTLTVSVGDGLPKSSKPTRKGMAKGKPRRSSQAPTRAAPAPPRGMDRNGVPPSARGGPLPLEIMSGGGTHRPPRGPPSTSLGASRRPRARPPSEHNTEFLNVPDQGMAGMQRKRSVGQRPVPGVGRPKPQPRTHGPRCRALYQYVGQDVDELSFNVNEVIEILMEDPSGWWKGRLHGQEGLFPGNYVEKI [MYO1F] | -0.1 | -0.173
MGSQHSAAARPSSCRRKQEDDRDGLLAEREQEEAIAQFPYVEFTGRDSITCLTCQGTGYIPTEQVNELVALIPHSDQRLRPQRTKQYVLLSILLCLLASGLVVFFLFPHSVLVDDDGIKVVKVTFNKQDSLVILTIMATLKIRNSNFYTVAVTSLSSQIQYMNTVVSTYVTTNVSLIPPRSEQLVNFTGKAEMGGPFSYVYFFCTVPEILVHNIVIFMRTSVKISYIGLMTQSSLETHHYVDCGGNSTAI [TMEM106C] | 0.121 | -0.29
MGTFCSVIKFENLQELKRLCHWGPIIALGVIAICSTMAMIDSVLWYWPLHTTGGSVNFIMLINWTVMILYNYFNAMFVGPGFVPLGWKPEISQDTMYLQYCKVCQAYKAPRSHHCRKCNRCVMKMDHHCPWINNCCGYQNHASFTLFLLLAPLGCIHAAFIFVMTMYTQLYHRLSFGWNTVKIDMSAARRDPLPIVPFGLAAFATTLFALGLALGTTIAVGMLFFIQMKIILRNKTSIESWIEEKAKDRIQYYQLDEVFVFPYDMGSRWRNFKQVFTWSGVPEGDGLEWPVREGCHQYSLTIEQLKQKADKRVRSVRYKVIEDYSGACCPLNKGIKTFFTSPCTEEPRIQLQKGEFILATRGLRYWLYGDKILDDSFIEGVSRIRGWFPRKCVEKCPCDAETDQAPEGEKKNR [ZDHHC6] | -0.0586 | -0.272
MGTSLSPNDPWPLNPLSIQQTTLLLLLSVLATVHVGQRLLRQRRRQLRSAPPGPFAWPLIGNAAAVGQAAHLSFARLARRYGDVFQIRLGSCPIVVLNGERAIHQALVQQGSAFADRPAFASFRVVSGGRSMAFGHYSEHWKVQRRAAHSMMRNFFTRQPRSRQVLEGHVLSEARELVALLVRGSADGAFLDPRPLTVVAVANVMSAVCFGCRYSHDDPEFRELLSHNEEFGRTVGAGSLVDVMPWLQYFPNPVRTVFREFEQLNRNFSNFILDKFLRHCESLRPGAAPRDMMDAFILSAEKKAAGDSHGGGARLDLENVPATITDIFGASQDTLSTALQWLLLLFTRYPDVQTRVQAELDQVVGRDRLPCMGDQPNLPYVLAFLYEAMRFSSFVPVTIPHATTANTSVLGYHIPKDTVVFVNQWSVNHDPLKWPNPENFDPARFLDKDGLINKDLTSRVMIFSVGKRRCIGEELSKMQLFLFISILAHQCDFRANPNEPAKMNFSYGLTIKPKSFKVNVTLRESMELLDSAVQNLQAKETCQ [CYP1B1] | -0.0639 | -0.171
MGVQGFQEFLEKRCPGAVVPVDLLKLARTVSRQQQQQHLHRQLPPTAALAPGAPRAARGSVPLQPPLPPAALGAYSGGAGPTRHHHPAHHFHHHGQAQPGLHPPLPPPPPPQLPGARVLVDAGSALPRLYGGYQTDWVCGGQWNAMLGYLSALCQACAYPGGDGLELVVMFPGGLGKDRLAEWGRRCQAERQTAQLIVGHVGNKGTPPPRAWFLPPACLSHCVRLALIRFRVKVFQSLEDHHLEVVAFFRENGFHGLLAHDSEYALYNIPSYYSSHALKLSWNGKNLTTNQFLMQEVAKQLGLKRMNFPIFAALLGNHILPDEDLAAFHWSLLGPEHPLASLKVRAHQLVLPPCDVVIKAVSEYVSSIKDPSNLDVVGKDVFKQSQSRTEDKIERFKKAVEYYSVTTKLSSLPVGPSFLGFRNNRLGNPPLPRNQVGTISAGKPMFSHQVPQKVKYPPPFPVGPNSSLLFSSHALGESHAFSEDPMLQNSPFANWAVSYDSSASQFPNYLPSKASPPLGPDSSHSSSSDGDEPNGASSDHITEAFHHQPEWGNPNRDRGSWAQPVDTGVSEASLGDGEPHIPSLLSMSTRNHMDITIPPLPPVAPEVLRVAEHRHRRGLMYPYIYHVLTKGEIKIPVCIEDECNMELPPAALLFRSARQYVYGVLFSLAETQRKMERLAMRRRLPVEVPSVILKEWSAYKGKSPQTPELVSALTFREWTCPNLKKLWLGKAVEDKNRRMRAFLACMKSDTPSMLNPANVPTHLLLMCCVLRYMVQWPGGRILHRHELDTFLAQAVSTQLYEPDRLQELKIEKLDARGIQLAALFMSGVDTALFANDACGQPVPWEHCCPWIYFDGKLFQSKLIKAGRERVSLVELCDGQADLATKVEKMRQSILEGVNMNHPPPSALLPSPTFVPPMVPSLYPVSLYSRAMGSMPLPPQGRSRGFAGLHPIPPQGGKLEIAGMVVGQWAGSRSSRGRGSFGMQVVSVGGPGKGHGKEQTGRGSKGHKKGNKQGSSDGVSKSLELHQGRSRSQVNGNSGALIKEEKSDHRLPAPSQCALSRDSNECNNGNRYLPMNNREKNHLQEQKLETVAQRKED [FAM120C] | 0.0177 | -0.0292
MGVSKLDILYRRLLLTKLFIRGWGRPEDLKRLFEFRKMIGNRERCQNLVSSDYPVHIDKIEEQSDCKILDGHFVSPMAHYVPDIMPIESVIARFQFIVPKEWNSKYRPVCIHLAGTGDHHYWRRRTLMARPMIKEARMASLLLENPYYGCRKPKDQVRSSLKNVSDLFVMGGALVLESAALLHWLEREGYGPLGMTGISMGGHMASLAVSNWPKPMPLIPCLSWSTASGVFTTTDSFKMGQEFVKHFTSSADKLTNLNLVSRTLNLDISNQVVSQKPADCHNSSKTSVSATSEGLLLQDTSKMKRFNQTLSTNKSGYTSRNPQSYHLLSKEQSRNSLRKESLIFMKGVMDECTHVANFSVPVDPSLIIVVQAKEDAYIPRTGVRSLQEIWPGCEIRYLEGGHISAYLFKQGLFR [ABHD18] | -0.33 | -0.181
MHARGPHGQLSPALPLASSVLMLLMSTLWLVGAGPGLVLAPELLLDPWQVHRLLTHALGHTALPGLLLSLLLLPTVGWQQECHLGTLRFLHASALLALASGLLAVLLAGLGLSSAAGSCGYMPVHLAMLAGEGHRPRRPRGALPPWLSPWLLLALTPLLSSEPPFLQLLCGLLAGLAYAAGAFRWLEPSERRLQVLQEGVLCRTLAGCWPLRLLATPGSLAELPVTHPAGVRPPIPGPPYVASPDLWSHWEDSALPPPSLRPVQPTWEGSSEAGLDWAGASFSPGTPMWAALDEQMLQEGIQASLLDGPAQEPQSAPWLSKSSVSSLRLQQLERMGFPTEQAVVALAATGRVEGAVSLLVGGQVGTETLVTHGKGGPAHSEGPGPP [RHBDD3] | -0.0767 | 0.0168
